Common to all, as to test: cell-based or functional assay
Assay [1] deals with T1, CD22 (UniProt P20273 20-847, limits assumed).
The target of assay [2] is T1, CD22. The source holds these as a separate data set.
The target in assay [3] is T1, CD22. This is another data set of the same source.
Assay [4] has as its target T1, CD22. The source holds these as a separate data set.
Assay [5] addresses T1, CD22. The source holds these as a separate data set.
For assay [6], the target named is T1, CD22. The source holds these as a separate data set.

Like-named read-outs stand apart in the source and are kept apart here.

B1: anti-CD22 (clone hLL2) Fab CTBV switch (Fab)
light: DIQLTQSPSSLSASVGDRVTMSCKSSQSVLYSANHKNYLAWYQQKPGKAPKLLIYWASTRESGVPSRFSGSGSGTDFTFTISSLQPEDIATYYCHQYLSSWTFGGGTKLEIKRTVAAPSVFIFPPSDEQLKSGTASVVCLLNNFYPREAKVQWKVDNALQSGNSQESVTEQDSKDSTYSLSSTLTLSKADYEKHKVYACEVTHQGLSSPVTKSFNRGECGGGGSNYHLENEVARLKKL
heavy: QVQLVQSGAEVKKPGSSVKVSCKASGYTFTSYWLHWVRQAPGQGLEWIGYINPRNDYTEYNQNFKDKATITADESTNTAYMELSSLRSEDTAFYFCARRDITTFYWGQGTTVTVSSARTKGPSVFPLAPSSKSTSGGTAALGCLVKDYFPEPVTVSWNSGALTSGVHTFPAVLQSSGLYSLSSVVTVPSSSLGTQTYICNVNHKPSNTKVDKKVEPKSCGGGGSNYHLENEVARLKKL
B1: in the assay with CD22 [1], the “cytotoxicity at 0.01 pM” value came out at 1.34, the “cytotoxicity at 0.1 pM” value is 0.18, the “cytotoxicity at 1 pM” value turned out to be 1.38 and the “cytotoxicity at 10 pM” value is 4.1. For the same molecule, in the assay with CD22 [1], the “cytotoxicity at 100 pM” value was 28.2, the “cytotoxicity at 1000 pM” value came to 46.9 and the “cytotoxicity at 10000 pM” value was found to be 44.2. This molecule also had an EC50 of cytotoxicity in the assay with CD22 [2] of 69.1 pM. In the assay with CD22 [3], the “cytotoxicity at 0.06 pM” value was -3.84, the “cytotoxicity at 0.30 pM” value is -0.28, the “cytotoxicity at 1.52 pM” value is -4.59 and the “cytotoxicity at 7.62 pM” value was 0.02. In the assay with CD22 [3], the “cytotoxicity at 38.10 pM” value stood at 6.77, the “cytotoxicity at 952.40 pM” value worked out at 21.7 and the “cytotoxicity at 4762.00 pM” value was 24.3. Further, in the assay with CD22 [4], the “cytotoxicity at 0.01 pM” value was determined as 4.6, the “cytotoxicity at 0.1 pM” value was 3.6, the “cytotoxicity at 10 pM” value came to 10.4 and the “cytotoxicity at 100 pM” value was 42.2. For the same molecule, in the assay with CD22 [4], the “cytotoxicity at 1000 pM” value came out at 47.4 and the “cytotoxicity at 10000 pM” value turned out to be 44.9. In the assay with CD22 [5], the EC50 of cytotoxicity is 55.5 pM. In the assay with CD22 [6], this molecule returned an EC50 of cytotoxicity of 28.8 pM.

B2: anti-CD22 (clone hLL2) Fab CTBV3 switch (3 GGGGS linker) (Fab)
light: DIQLTQSPSSLSASVGDRVTMSCKSSQSVLYSANHKNYLAWYQQKPGKAPKLLIYWASTRESGVPSRFSGSGSGTDFTFTISSLQPEDIATYYCHQYLSSWTFGGGTKLEIKRTVAAPSVFIFPPSDEQLKSGTASVVCLLNNFYPREAKVQWKVDNALQSGNSQESVTEQDSKDSTYSLSSTLTLSKADYEKHKVYACEVTHQGLSSPVTKSFNRGECGGGGSGGGGSGGGGSNYHLENEVARLKKL
heavy: QVQLVQSGAEVKKPGSSVKVSCKASGYTFTSYWLHWVRQAPGQGLEWIGYINPRNDYTEYNQNFKDKATITADESTNTAYMELSSLRSEDTAFYFCARRDITTFYWGQGTTVTVSSARTKGPSVFPLAPSSKSTSGGTAALGCLVKDYFPEPVTVSWNSGALTSGVHTFPAVLQSSGLYSLSSVVTVPSSSLGTQTYICNVNHKPSNTKVDKKVEPKSCGGGGSGGGGSGGGGSNYHLENEVARLKKL
Turning to B2, in the assay with CD22 [4], the “cytotoxicity at 0.01 pM” value is 2.54, the “cytotoxicity at 0.1 pM” value is 7.9, the “cytotoxicity at 10 pM” value was found to be 17 and the “cytotoxicity at 100 pM” value turned out to be 51.3. Moreover, in the assay with CD22 [4], the “cytotoxicity at 1000 pM” value was determined as 45.3 and the “cytotoxicity at 10000 pM” value is 41.5. Moreover, the EC50 of cytotoxicity with CD22 [6] was found to be 14.9 pM.

These data come from patent US20190169289A1 (Scripps Research, published 2019).
